# Reference: patent publication US5543312A, “Pastuerella haemolytica glycoprotease gene and the purified enzyme” (priority 1991, dated 1996)
# B1: CD45/leucocyte common antigen: O-sialoglycoprotein cell surface antigen, leukocyte common antigen (protein)
# chain: QSPTPSPTGLTTAKMPSVPLSSDPLPTHTTAFSPASTFERENDFSETTTSLSPDNTSTQVSPDSLDNASAFNTTGVSSVQTPHLPTHADSQTPSAGTDTQTFSGSAANAKLNPTPGSNAISDVPGERSTASTFPTDPVSPLTTTLSLAHHSSAALPARTSNTTITANTSDAYLNASETTTLSPSGSAVISTTTIATTPSKPTCDEKYANITVDYLYNKETKLFTAKLNVNENVECGNNTCTNNEVHNLTECKNASVSISHNSCTAPDKTLILDVPPGVEKFQLHDCTQVEKADTTICLKWKNIETFTCDTQNITYRFQCGNMIFDNKEIKLENLEPEHEYKCDSEILYNNHKFTNASKIIKTDFGSPGEPQIIFCRSEAAHQGVITWNPPQRSFHNFTLCYIKETEKDCLNLDKNLIKYDLQNLKPYTKYVLSLHAYIIAKVQRNGSAAMCHFTTKSAPPSQVWNMTVSMTSDNSMHVKCRPPRDRNGPHERYHLEVEAGNTLVRNESHKNCDFRVKDLQYSTDYTFKAYFHNGDYPGEPFILHHSTSYNSKALIAFLAFLIIVTSIALLVVLYKIYDLHKKRSCNLDEQQELVERDDEKQLMNVEPIHADILLETYKRKIADEGRLFLAEFQSIPRVFSKFPIKEARKPFNQNKNRYVDILPYDYNRVELSEINGDAGSNYINASYIDGFKEPRKYIAAQGPRDETVDDFWRMIWEQKATVIVMVTRCEEGNRNKCAEYWPSMEEGTRAFGDVVVKINQHKRCPDYIIQKLNIVNKKEKATGREVTHIQFTSWPDHGVPEDPHLLLKLRRRVNAFSNFFSGPIVVHCSAGVGRTGTYIGIDAMLEGLEAENKVDVYGYVVKLRRQRCLMVQVEAQYILIHQALVEYNQFGETEVNLSELHPYLHNMKKRDPPSEPSPLEAEFQRLPSYRSWRTQHIGNQEENKSKNRNSNVIPYDYNRVPLKHELEMSKESEHDSDESSDDDSDSEEPSKYINASFIMSYWKPEVMIAAQGPLKETIGDFWQMIFQRKVKVIVMLTELKHGDQEICAQYWGEGKQTYGDIEVDLKDTDKSSTYTLRVFELRHSKRKDSRTVYQYQYTNWSVEQLPAEPKELISMIQVVKQKLPQKNSSEGNKHHKSTPLLIHCRDGSQQTGIFCALLNLLESAETEEVVDIFQVVKALRKARPGMVSTFEQYQFLYDVIASTYPAQNGQVKKNNHQEDKIEFDNEVDKVKQDANCVNPLGAPEKLPEAKEQAEGSEPTSGTEGPEHSVNGPASPALNQGS
# modifications: O-sialoglycosylated
# B2: glycophorin A: major sialoglycopeptide of the human erythrocyte membrane (protein, UniProt P02724 20-150, looked up)
# Glycophorin-A: LSTTEVAMHTSTSSSVTKSYISSQTNDTHKRDTYAATPRAHEVSEISVRTVYPPEEETGERVQLAHHFSEPEITLIIFGVMAGVIGTILLISYGIRRLIKKSPSDVKPLPSPDTDVPLSSVEIENPETSDQ
# B3: CD34: O-sialoglycoprotein cell surface antigen, primitive bone marrow stem cell antigen (protein, UniProt P28906 32-385, looked up)
# Hematopoietic progenitor cell …: SLDNNGTATPELPTQGTFSNVSTNVSYQETTTPSTLGSTSLHPVSQHGNEATTNITETTVKFTSTSVITSVYGNTNSSVQSQTSVISTVFTTPANVSTPETTLKPSLSPGNVSDLSTTSTSLATSPTKPYTSSSPILSDIKAEIKCSGIREVKLTQGICLEQNKTSSCAEFKKDRGEGLARVLCGEEQADADAGAQVCSLLLAQSEVRPQCLLLVLANRTEISSKLQLMKKHQSDLKKLGILDFTEQDVASHQSYSQKTLIALVTSGALLAVLGITGYFLMNRRSWSPTGERLGEDPYYTENGGGQGYSSGPGTSPEAQGKASVNRGAQENGTGQATSRNGHSARQHVVADTEL
# B4: CD43/leucosialin: O-sialoglycoprotein cell surface antigen, leukosialin/sialophorin (protein)
# chain: STTAVQTPTSGEPLVSTSEPLSSKMYTTSITSDPKADSTGDQTSALPPSTSINEGSPLWTSIGASTGSPLPEPTTYQEVSIKMSSVPQETPHATSHPAVPITANSLGSHTVTGGTITTNSPETSSRTSGAPVTTAASSLETSRGTSGPPLTMATVSLETSKGTSGPPVTMATDSLETSTGTTGPPVTMTTGSLEPSSGASGPQVSSVKLSTMMSPTTSTNASTVPFRNPDENSRGMLPVAVLVALLAVIVLVALLLLWRRRQKRRTGALVLSRGGKRNGVVDAWAGPAQVPEEGAVTVTVGGSGGDKGSGFPDGEGSSRRPTLTTFFGRRKSRQGSLAMEELKSGSGPSLKGEEEPLVASEDGAVDAPAPDEPEGGDGAAP
# modifications: O-sialoglycosylated
# What was measured:
# [1] = test system: P. haemolytica glycoprotease; assay: Cleavage of cell surface antigens of surface-125I-iodinated KG1a cells, immunoprecipitation and SDS-PAGE; type: cell-based
# Excerpt: In our previous work, we have concentrated on the cleavage of human erythrocyte glycophorin A by the P. haemolytica glycoprotease Udoh et al. 1986. Univ. of Guelph; Abdullah et al. 1988. Proc. Canad. Fed. Biol. Socs.; Abdullah et al. 1990. Biochem. Soc. Trans. This substrate is well-characterized erythrocyte surface O-sialoglycoprotein and is readily available for biochemical analysis. However, it is clear that the physiological targets of this enzyme are not erthrocyte antigens but are probably O-sialoglycoproteins on the surfaces of leukocytes or endothelial cells. SDS-PAGE analysis of immunoprecipitations performed with specific monoclonal antibodies on lysates of surface-^125 I-iodinated KG1a cells, a primitive myeloid/T-lymphois stem cell line Koeffler et al. 1977. Science 200, have shown that the O-sialoglycoprotein cell surface antigens CD34 Civin et al. 1989. Leucocyte Typing IV, Oxford Univ. Press. CD43/leucosialin Killeen et al. 1987. EMBO J.; Pallant et al. 1989. PNAS, CD44/lyaluronic acid receptor Stamenkovic et al. 1989. Cell; Aruffo et al. 1990. Cell and CD45/leucocyte common antigen Thomas et al. 1989. Annu. REv. Immunol.; Pulido et al. 1989. J. Immunol. are all cleaved by the glycoprotease. Although the glycoprotease-sensitive structures contain some N-linked glycans they are all extensively glycosylated with O-linked carbohydrates. However, the N-linked glycoproteins CD18/11^a, 11^b, 11^c /leukocyte integrins Arnaout et al. 1990. Blood, CD71/transferrin receptor Shae et al. 1986. Cell, HLA class I Owen et al. 1980. J. Biol. Chem., and 8A3 antigens Sutherland et al. Blood (in press, Jan. 1991), which lack O-sialo-residues, were resistant to the action of the enzyme.
# [2] = target: P. haemolytica A1 protease (Mannheimia haemolytica, UniProt P36175); type: biochemical; conditions: FIG. 9; SDS-PAGE autoradiography
# [3] = test system: P. haemolytica glycoprotease; assay: Removal of CD34 epitopes on KG1/KG1a cells (fluorescence microscopy, flow cytometry, western blotting); type: cell-based
# Excerpt: Blood; Katz et al. 1985. Leuk. Res. which detects a sialic acid-dependent epitope on this glycoprotein Watt et al. 1987. Leukaemia; and Sutherland et al. 1988. Leukaemia. We have assessed the ability of this enzyme to remove CD34 epitopes recognized by all seven CD34 antibodies designated by the 4th Leucocyte Antigen Workshop Civin et al. 1989. Leukocyte Typing IV, Oxford Univ. Press. We have shown by fluorescence microscopy, quantitative flow cytometry and western blotting, that sialic acid-dependent epitopes, recognized by antibodies B1.3C5, MY10 Civin et al. 1984. J. Immunol. and 12.8 Andrews et la. 1986. […] Leukaemia and 188.24 Sutherland et al. Leukaemia. In contrast, the sialic acid-independent epitopes by 115.2 Andrew et al. 1986. Blood and TUK3 Civin et al. 1989. Leucocyte Typing IV, Oxford Univ. […] As previously for the cleavage of glycophorin, the enzyme requires the presence of sialyted residues on its substrate and the prior treatment of KGla cells with neuraminidase reduced the ability of the glycoprotease to cleave the ICH3 and 188.24 epitopes Sutherland et al. 1990. Blood (in press). The differential sensitivity of certain CD34 epitopes to cleavage with either neuraminidase and/or glycoprotease establishes 3 classes of epitopes:(Class 1) those like MY 10,B1.3C5 and 12.8 which are removed both by neuraminidase and by the glycoprotease;(Class II) those like ICH3 and 188.24 which are removed only by the glycoprotease; (Class III) those like TUK3 and 115.2
molecule,measurement,setting,value
B1,Cleavage of cell surface antigen by the glycoprotease,[1],cleaved
B2,Hydrolysis of [125I]-glycophorin A forms by P. haemolytica A1 pH 4.5 fraction,[2],total hydrolysis
B3,"Removal of sialic acid-dependent epitopes recognized by antibodies B1.3C5, MY10 and 12.8",[3],totally removed
same,Removal of sialic acid-independent epitopes recognized by ICH3 and 188.24,[3],totally removed
same,Sensitivity of sialic acid-independent epitopes recognized by 115.2 and TUK3,[3],totally resistant
same,"Cleavage of CD34, loss of reactivity with anti-CD34 monoclonal antibody B1.3C5",[3]; KG1 cells,readily cleaved
same,Cleavage of cell surface antigen by the glycoprotease,[1],cleaved
B4,Cleavage of cell surface antigen by the glycoprotease,[1],cleaved
